Measured values from patent US20190119389A1 (POTENZA THERAPEUTICS, published 2019).

Tests used:
recombinant human NRP-1 = target: T1, recombinant human NRP-1 (human, UniProt O14786 22-856, limits assumed); assay: blocking ELISA: SEMA3A coated, biotinylated human NRP-1 preincubated with IgG1 antibody; competitor SEMA3A
T1 construct: also called biotinylated human NRP-1

Mouse NRP-1 His = target: T2, Mouse NRP-1 His (mouse, UniProt P97333 22-856); assay: BLI ForteBio, IgG1 N297A on AHQ sensor, 100 nM monomeric antigen, 1:1 fit
T2 construct: Recombinant monomeric protein; also called mNRP-1; not shown: His tag

Human NRP-1 His [1] = target: T3, Human NRP-1 His (human, UniProt O14786 22-856); assay: as above
T3 construct: Recombinant monomeric protein; Biotinylated in the MSD-SET assay; also called hNRP-1; not shown: His tag

Cyno NRP-1 His = target: T4, Cyno NRP-1 His (cynomolgus monkey, UniProt O14786 22-856 (human entry), limits assumed); assay: as above
T4 construct: Recombinant monomeric protein; also called cynomolgus monkey NRP-1-His; cNRP-1; not shown: His tag
T4 chain: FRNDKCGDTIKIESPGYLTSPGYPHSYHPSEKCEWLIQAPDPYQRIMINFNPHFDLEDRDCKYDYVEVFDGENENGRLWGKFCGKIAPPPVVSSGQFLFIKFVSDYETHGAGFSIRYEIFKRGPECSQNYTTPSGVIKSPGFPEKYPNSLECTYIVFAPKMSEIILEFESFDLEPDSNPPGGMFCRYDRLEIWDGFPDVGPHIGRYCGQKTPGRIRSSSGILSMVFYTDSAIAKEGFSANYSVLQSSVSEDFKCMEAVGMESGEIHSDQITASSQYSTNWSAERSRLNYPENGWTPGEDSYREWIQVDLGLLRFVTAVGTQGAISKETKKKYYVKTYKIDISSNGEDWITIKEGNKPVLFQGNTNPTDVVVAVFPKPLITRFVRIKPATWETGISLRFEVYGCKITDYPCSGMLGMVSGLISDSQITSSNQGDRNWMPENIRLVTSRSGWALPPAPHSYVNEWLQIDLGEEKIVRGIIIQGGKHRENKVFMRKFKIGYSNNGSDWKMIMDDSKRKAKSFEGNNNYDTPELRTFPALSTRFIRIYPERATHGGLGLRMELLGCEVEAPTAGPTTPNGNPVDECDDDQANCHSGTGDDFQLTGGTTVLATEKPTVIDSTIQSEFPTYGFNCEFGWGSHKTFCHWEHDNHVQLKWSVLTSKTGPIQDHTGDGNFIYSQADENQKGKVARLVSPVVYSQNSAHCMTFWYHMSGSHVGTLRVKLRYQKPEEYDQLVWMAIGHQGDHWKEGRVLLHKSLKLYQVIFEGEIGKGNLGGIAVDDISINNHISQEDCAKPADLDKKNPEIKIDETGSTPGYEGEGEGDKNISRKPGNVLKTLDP

Human NRP-1 His [2] = target: T3, Human NRP-1 His; assay: MSD-SET solution equilibrium titration, Fab
Target sequence in this assay (O14786 22-856 V179A limits assumed): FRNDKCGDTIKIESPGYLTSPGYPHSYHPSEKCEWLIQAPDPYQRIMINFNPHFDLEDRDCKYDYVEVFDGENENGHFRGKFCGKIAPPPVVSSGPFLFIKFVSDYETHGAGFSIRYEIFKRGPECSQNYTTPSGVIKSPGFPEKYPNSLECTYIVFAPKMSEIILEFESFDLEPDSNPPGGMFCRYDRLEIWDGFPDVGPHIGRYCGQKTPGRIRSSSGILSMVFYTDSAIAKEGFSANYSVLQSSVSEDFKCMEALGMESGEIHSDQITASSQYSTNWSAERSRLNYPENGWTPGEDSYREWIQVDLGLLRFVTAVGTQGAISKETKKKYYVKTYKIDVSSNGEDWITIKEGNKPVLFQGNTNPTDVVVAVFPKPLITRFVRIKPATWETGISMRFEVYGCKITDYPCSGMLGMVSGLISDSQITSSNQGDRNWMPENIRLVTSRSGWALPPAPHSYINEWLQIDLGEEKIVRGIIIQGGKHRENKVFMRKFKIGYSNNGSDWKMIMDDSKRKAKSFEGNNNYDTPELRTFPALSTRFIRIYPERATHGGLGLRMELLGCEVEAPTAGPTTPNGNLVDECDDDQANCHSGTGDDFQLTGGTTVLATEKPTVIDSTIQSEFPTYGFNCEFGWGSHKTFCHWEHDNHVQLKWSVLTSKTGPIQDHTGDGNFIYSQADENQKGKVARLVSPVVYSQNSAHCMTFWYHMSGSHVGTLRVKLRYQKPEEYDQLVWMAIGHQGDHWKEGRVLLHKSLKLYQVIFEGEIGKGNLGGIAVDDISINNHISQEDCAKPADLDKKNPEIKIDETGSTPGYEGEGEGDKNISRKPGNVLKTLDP

T1 sequence (O14786 22-856 V179A limits assumed): as above

Binder | IC50 (recombinant human NRP-1) | Kd (Mouse NRP-1 His) | Kd (Human NRP-1 His [1]) | Kd (Cyno NRP-1 His) | Kd (Human NRP-1 His [2])
MAB5 (antibody, V domains shown) VH: QVQLVQSGAEVKKPGASVKVSCKASGYTFTSYYMHWVRQAPGQGLEWMGIINPQGGDTSYAQKFQGRVTMTRDTSTSTVYMELSSLRSEDTAVYYCARDRGMYYASGFGPWGQGTLVTVSS VL: EIVMTQSPGTLSLSPGERATLSCRASQSVSSSYLAWYQQKPGQAPRLLIYGASNRATGIPDRFSGSGSGTDFTLTISRLEPEDFAVYYCQQLSSFPITFGGGTKVEIK | 5.9 nM | 5.06 nM | 3.23 nM | 4.09 nM | –
MAB15 (antibody, V domains shown) VH: QVQLQQWGAGLLKPSETLSLTCAVYGGSFVKYYWSWIRQPPGKGLEWIGDIWHSGMTNYNPSLKSRVTISVDTSKNQFSLKLSSVTAADTAVYYCARGPGYDSSGYSRRFDPWGQGTLVTVSS VL: not shown | – | 54.1 nM | 0.851 nM | 9.2 nM | –
MAB1 (antibody, V domains shown) VH: QVQLVQSGAGVKKPGASVKVSCKASGYTFRSYYMLWVRQAPGQGLEWMGIIDPSDGSTSYAQKFQGRVTMTRDTPTSTVYMELSSLRSEDTAVYYCARGARRITGYGMDVWGQGTTVTVSS VL: DIQMTQSPSSVSASVGDRVTITCRASQGISSWLAWYQQKPGKAPKLLIYAASNLQSGVPSRFSGSGSGTDFTLTISSLQPEDFATYYCQQASVFPFTFGGGTKVEIK | 2.9 nM | 2.12 nM | 1.87 nM | 2.16 nM | –
MAB13 (antibody, V domains shown) VH: QVQLQQWGAGLLKPSETLSLTCAVYGGSFRGYYWEWIRQPPGKGLEWIGEISHSGSTNYNPSLKSRVTISVDTSKNQFSLKLSSVTAADTAVYYCARARPYREPYGMDVWGQGTTVTVSS VL: DIQLTQSPSSVSASVGDRVTITCRASQDISSWLAWYQQKPGKAPKLLIYAASSLQSGVPSRFSGSGSGTDFTLTISSLQPEDFATYYCQQELAFPRTFGGGTKVEIK | 3.4 nM | 7.42 nM | 1.41 nM | 1.58 nM | –
MAB3 (antibody, V domains shown) VH: QAQLVQSGAEVKKPGASVKVSCKASGYTFSRYYMHWVRQAPGQGLEWMGIINPLGGSTLYAQKFQGRVTMTRDTSTSTVYMELSSLRSEDTAVYYCARDLGYYGSGMHAWGQGTLVTVSS VL: DIQMTQSPSSVSASVGDRVTITCRASQGISRWLAWYQQKPGKAPKLLIYAASSLQSGVPSRFSGSGSGTDFTLTISSLQPEDFATYYCQQANLLPFTFGGGTKVEIK | 0.6 nM | 0.99 nM | 1.08 nM | 1.19 nM | –
MAB2 (antibody, V domains shown) VH: QVQLVQSGAEVKKPGASVKVSCKASGYTFRSYYMLWVRQAPGQGLEWMGIIDPSDGSTSYAQKFQGRVTMTRDASTSTVYMELSSLRSEDTAVYYCARGARRITGYGMDVWGQGTTVIVSS VL: DIQMTQSPSSVSASVGDRVTITCRASQGISSWLAWYQQKPGKAPKLLIYAASNLQSGVPSRFSGSGSGTDFTLTISSLQPEDFATYYCQQASVFPFTFGGGTKVEIK | 3.1 nM | 1.94 nM | 1.86 nM | 2.43 nM | –
MAB14 Fab (Fab, V domains shown) VH: QVQLQQWGAGLLKPSETLSLTCAVYGGSFRGYYWEWSRQPPGKGLEWIGEISHSGSTNYNPSLKSRVTISVDTSKNQFSLKLSPVTAADTAVYYCARARPYREPYGMDVWGQGTTVTVSS VL: DIQLTQSPSSVSASVGDRVTITCRASQDISSWLAWYQQKPGKAPKLLIYAASSLQSGVPSRFSGSGSGTDFTLTISSLQPEDFATYYCQQELAFPRTFGGGTKVEIK | – | – | – | – | 0.28 nM
MAB4 (antibody, V domains shown) VH: QVQLVQSGAEVKKPGASVKVSCKASGYTFSRYYMHWVRQAPGQGLEWMGIINPLGGSTLYAQKFQGRVTMTRDTSTSTVYMELSSLRSEDTAVYYCARDLGYYGSGMHVWGQGTLVTVSS VL: DIQMTQSPSSVSASVGDRVTITCRASQGISRWLAWYQQKPGKAPKLLIYAASSLQSGVPSRFSGSGSGTDFTLTISSLQPEDFATYYCQQANLLPFTFGGGTKVEIK | 3.9 nM | 0.746 nM | 0.851 nM | 0.925 nM | –
MAB14 (antibody, V domains shown) VH: QVQLQQWGAGLLKPSETLSLTCAVYGGSFRGYYWEWSRQPPGKGLEWIGEISHSGSTNYNPSLKSRVTISVDTSKNQFSLKLSPVTAADTAVYYCARARPYREPYGMDVWGQGTTVTVSS VL: DIQLTQSPSSVSASVGDRVTITCRASQDISSWLAWYQQKPGKAPKLLIYAASSLQSGVPSRFSGSGSGTDFTLTISSLQPEDFATYYCQQELAFPRTFGGGTKVEIK | 3.1 nM | 5 nM | 1.12 nM | 1.1 nM | –
MAB2 Fab (Fab, V domains shown) VH: QVQLVQSGAEVKKPGASVKVSCKASGYTFRSYYMLWVRQAPGQGLEWMGIIDPSDGSTSYAQKFQGRVTMTRDASTSTVYMELSSLRSEDTAVYYCARGARRITGYGMDVWGQGTTVIVSS VL: DIQMTQSPSSVSASVGDRVTITCRASQGISSWLAWYQQKPGKAPKLLIYAASNLQSGVPSRFSGSGSGTDFTLTISSLQPEDFATYYCQQASVFPFTFGGGTKVEIK | – | – | – | – | 0.23 nM
MAB4 Fab (Fab, V domains shown) VH: QVQLVQSGAEVKKPGASVKVSCKASGYTFSRYYMHWVRQAPGQGLEWMGIINPLGGSTLYAQKFQGRVTMTRDTSTSTVYMELSSLRSEDTAVYYCARDLGYYGSGMHVWGQGTLVTVSS VL: DIQMTQSPSSVSASVGDRVTITCRASQGISRWLAWYQQKPGKAPKLLIYAASSLQSGVPSRFSGSGSGTDFTLTISSLQPEDFATYYCQQANLLPFTFGGGTKVEIK | – | – | – | – | 0.046 nM
MAB8 Fab (Fab, V domains shown) VH: EVQLLESGGGLVQPGGSLRLSCAASGFTFASYAMVWVRQAPGKGLEWVSIISGSGGSTYYADSVKGRFTISRDNSKNTLYLQMNSLRAEDTAVYYCAKDPGYDSSRYYYSNYGMDVWGQGTTVTVSS VL: DIQMTQSPSSLSASVGDRVTITCRASQSISSYLNWYQQKPGKAPKLLIYGASSLQSGVPSRFSGSGSGTDFTLTISSLQPEDFATYYCQQTYSLYTFGGGTKVEIK | – | – | – | – | 0.096 nM
MAB12 Fab (Fab, V domains shown) VH: EVQLLESGGGLVQPGGSLRLSCAASGFTFSSVAMVWVRQAPGKGLEWVSAISGSGGATYYADSVEGRFTISRDNSKNTLYLQMNSLRAEDTAVYYCAKDPGYDSSRYYYSNYGMDVWGQGTTVTVSS VL: DIQMTQSPSSLSASVGDRVTITCRASQSISSYLNWYQQKPGKAPKLLIYGASSLQSGVPSRFSGSGSGTDFTLTISSLQPEDFATYYCQQTYSLYTFGGGTKVEIK | – | – | – | – | 0.026 nM
MAB9 Fab (Fab, V domains shown) VH: EVQLLESGGGLVQPGGSLRLSCAASGFTFKSYAMVWVRQAPGKGLEWVSIISGSGGATYYADSVKGRFTISRDNSKNTLYLQMNSLRAEDTAVYYCAKDPGYDSSRYYYSNYGMDVWGQGTTVTVSS VL: DIQMTQSPSSLSASVGDRVTITCRASQSISSYLNWYQQKPGKAPKLLIYGASSLQSGVPSRFSGSGSGTDFTLTISSLQPEDFATYYCQQTYSLYTFGGGTKVEIK | – | – | – | – | 0.019 nM
MAB11 Fab (Fab, V domains shown) VH: EVQLLESGGGLVQPGGSLRLSCAASGFTFSSVAMVWVRQAPGKGLEWVSAISGSGGATYYADSVEGRFTISRDNSKNTLYLQMSSLRAEDTAVYYCAKDPGYDSSRYYYSNYGMDVWGQGTTVTVSS VL: DIQMTQSPSSLSASVGDRVTITCRASQSISSYLNWYQQKPGKAPKLLIYGASSLQSGVPSRFSGSGSGTDFTLTISSLQPEDFATYYCQQTYSLYTFGGGTKVEIK | – | – | – | – | 0.021 nM
